Measurements from PMC9674253.

Columns and labels:
[1] = target: NPAS4 (1-348);ARNT (82-465) (mouse;mouse, UniProt Q8BGD7;P53762 1-348;82-465, |); assay: fluorescence polarization
[2] = target: NPAS4 (1-348);ARNT2 (50-439) (mouse;mouse, UniProt Q8BGD7;Q61324 1-348;50-439, |); assay: fluorescence polarization
NPAS4 (1-348);ARNT2 (50-439), sequence (Q8BGD7 1-348, chain 1 of 2): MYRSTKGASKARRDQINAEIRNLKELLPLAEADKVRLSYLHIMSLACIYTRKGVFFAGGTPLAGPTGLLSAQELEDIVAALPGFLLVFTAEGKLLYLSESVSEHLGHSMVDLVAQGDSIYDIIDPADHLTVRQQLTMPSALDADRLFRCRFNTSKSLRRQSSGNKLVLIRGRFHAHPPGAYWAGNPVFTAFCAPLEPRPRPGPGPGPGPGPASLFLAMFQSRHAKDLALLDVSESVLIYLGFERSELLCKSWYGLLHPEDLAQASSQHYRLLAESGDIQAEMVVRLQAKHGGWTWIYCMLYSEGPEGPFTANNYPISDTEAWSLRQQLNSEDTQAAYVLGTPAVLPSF
NPAS4 (1-348);ARNT2 (50-439), sequence (Q61324 50-439, chain 2 of 2): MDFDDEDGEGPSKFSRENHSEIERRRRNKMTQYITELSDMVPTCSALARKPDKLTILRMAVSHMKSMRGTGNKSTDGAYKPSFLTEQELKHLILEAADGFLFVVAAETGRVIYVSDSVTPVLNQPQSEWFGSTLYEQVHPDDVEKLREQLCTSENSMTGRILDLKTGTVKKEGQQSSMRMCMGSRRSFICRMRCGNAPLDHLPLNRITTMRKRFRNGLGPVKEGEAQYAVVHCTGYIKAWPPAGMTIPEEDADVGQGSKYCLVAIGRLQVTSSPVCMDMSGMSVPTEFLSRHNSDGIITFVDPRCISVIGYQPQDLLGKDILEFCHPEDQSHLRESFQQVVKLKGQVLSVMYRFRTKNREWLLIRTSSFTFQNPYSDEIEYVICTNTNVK

NPAS4 (1-348);ARNT (82-465), sequence (Q8BGD7 1-348, chain 1 of 2): as the sequence (Q8BGD7 1-348, chain 1 of 2) above
NPAS4 (1-348);ARNT (82-465), sequence (P53762 82-465, chain 2 of 2): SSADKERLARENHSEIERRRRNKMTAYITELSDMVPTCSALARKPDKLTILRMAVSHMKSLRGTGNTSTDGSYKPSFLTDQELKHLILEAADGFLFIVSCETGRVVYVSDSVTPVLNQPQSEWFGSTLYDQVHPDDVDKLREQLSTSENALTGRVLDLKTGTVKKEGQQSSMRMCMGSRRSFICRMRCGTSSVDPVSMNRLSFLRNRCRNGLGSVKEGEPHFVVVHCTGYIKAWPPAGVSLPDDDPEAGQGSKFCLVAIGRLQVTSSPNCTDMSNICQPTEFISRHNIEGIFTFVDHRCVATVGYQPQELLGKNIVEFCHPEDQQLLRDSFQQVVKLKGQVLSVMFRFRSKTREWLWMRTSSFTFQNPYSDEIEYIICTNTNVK

B1: 21-mer NPAS4 response element (FP) (dsDNA)
DNA 1: GGATGAGGTCGTGAGTGATGA
DNA 2: TCATCACTCACGACCTCATCC
In the case of B1, the Kd [1] is reported as 13.1 ± 0.4 nM and the Kd [2] is reported as 46.8 ± 3.9 nM.
